What was measured:
[1] = tested on: first-order trigeminovascular neurons (A-delta and C-type meningeal nociceptors); test: Single-unit recording of first-order trigeminovascular neurons in the trigeminal ganglion activated by CSD; type: in vivo, rat
Protocol: CSD was induced by pinprick 4 hours after drug/isotype infusion.

[2] = target: T1, human α-CGRP fragments and variants (Homo sapiens, UniProt P06881); test: Biacore affinity of G1 Fab to human α-CGRP fragments and variants on chip; type: binding; settings: CGRP on chip: 38A (25-38A), 37° C.
T1 construct: host or cells: synthetic peptides
Protocol: Biacore assay for affinity determination. […] All Biacore assays were conducted in HBS-EP running buffer (10 mM HEPES pH 7.4, 150 mM NaCl, 3 mM EDTA, 0.005% v/v polysorbate P20). CGRP surfaces were prepared by diluting the N-biotinylated CGRP to a concentration of less than 0.001 mg/mL into HBS-EP buffer and injecting it across the SA sensor chip using variable contact times. Low capacity surfaces, corresponding to capture levels <50 response units (RU) were used for high-resolution kinetic studies, whereas high capacity surfaces (about 800 RU of captured CGRP) were used for concentration studies, screening, and solution affinity determinations. […] Samples were typically injected for lminute at 100 μL/min and dissociation times of at least 10 minutes were allowed. After each binding cycle, surfaces were regenerated with 25 mM NaOH in 25% v/v ethanol, which was tolerated over hundreds of cycles. An entire titration series (typically generated in duplicate) was fit globally to a 1:1 Langmuir binding model using the BlAevaluation program. This returned a unique pair of association and dissociation kinetic rate constants (respectively, kon and koff) for each binding interaction, whose ratio gave the equilibrium dissociation constant (KD=koff/[…]).

[3] = tested on: high-threshold (HT) trigeminovascular neurons; test: Activation and sensitization of central trigeminovascular neurons by cortical spreading depression (CSD), HT neurons; type: in vivo, rat; settings: for firing of HT neurons before CSD: 30 mg/kg IV, 4 hours after treatment; for firing of HT neurons after CSD: 6 hours after treatment; for expected CSD-induced activation of the HT neurons: 30 mg/kg IV 4 hours before CSD
Protocol: Cortical spreading depression (CSD) was induced mechanically by inserting a glass micropipette (tip diameter 25 μm) about 1 mm into the visual cortex for 10 sec. At a propagation rate of 3-5 mm/min, a single wave of CSD was expected to enter the neuronal receptive field within 1-2 min of cortical stimulation. For verification of CSD, cortical activity was recorded (electrocorticogram) with a glass micropipette (0.9% saline, ˜1 megohm, 7 um tip) placed just below the surface of the cerebral cortex (approximately 100 μm). The electrocorticogram electrode was positioned about 6 mm anterior to the visual cortex.
It was diluted in saline to a final dose of 30 mg/kg and administered intravenously (bolus injection, total volume 0.6-0.7 ml). A corresponding human IgG2 isotype control antibody (isotype-conAb) was also diluted in saline to a final dose of 30 mg/kg and administered intravenously (bolus injection, total volume 1.6-2.0 ml).
The experimental protocol included two parts. The first part was designed to compare CGRP-mAb vs isotype-conAb effects on spontaneous and induced activity of naïve trigeminovascular neurons, and the second part was designed to test CGRP-mAb vs isotype-conAb effects on the activation and sensitization of trigeminovascular neurons by CSD. Both parts included sampling of WDR and HT neurons in male and female rats. In the first part, the baseline neuronal profile was established by (a) mapping the dural, cutaneous and corneal receptive field; (b) measuring responses (mean spikes/sec) to mechanical stimulation of the dura (with a fixed force), skin (brush, pressure, pinch) and cornea (brush), and (c) measuring spontaneous firing rate (recorded over 30 min prior to treatment). Once the baseline was established, CGRP-mAb or isotype-conAb were administered and receptive fields were remapped, neuronal responses to stimulation of the dura, skin and cornea were re-examined, and the spontaneous activity rate was re-sampled at 1, 2, 3, and 4 hours post-treatment. The resulting values for each measure were then compared with the respective baseline values obtained before treatment. In the second part, CSD was induced 4 hours after administration of CGRP-mAb or isotype-conAb and 2 hours later (i.e., 6 hours after treatment) receptive field size, spontaneous activity rate, and response magnitude to stimulation of the dura, skin and cornea were measured again. The resulting post-CSD values for each measure were then compared with the respective pre-CSD values obtained at the 4-hour post-treatment time. This part was initiated only in cases in which the physiological condition of the rats (heart rate, blood pressure, respiration, end tidal CO2) and the neuronal isolation signal (signal-to-noise ratio ≥1:3) were stable at the 4-hour post-treatment time point.
To calculate the response magnitude to each stimulus, the mean firing frequency occurring before the onset of the first stimulus (30 min for spontaneous activity, 10 sec for mechanical stimulation of the dura, skin and cornea) was subtracted from the mean firing frequency that occurred throughout the duration of each stimulus. […] A neuron was considered activated when its mean firing rate after CSD exceeded its mean baseline activity by 2 standard deviations of that mean for a period >10 min, which translated to ≥33% increase in activity. […] Mean firing rates of respective values were compared using nonparametric statistics (Wilcoxon signed-ranks test). Two-tailed level of significance was set at 0.05.

B1: fremanezumab (antibody)
heavy: EVQLVESGGGLVQPGGSLRLSCAASGFTFSNYWISWVRQAPGKGLEWVAEIRSESDASATHYAEAVKGRFTISRDNAKNSLYLQMNSLRAEDTAVYYCLAYFDYGLAIQNYWGQGTLVTVSSASTKGPSVFPLAPCSRSTSESTAALGCLVKDYFPEPVTVSWNSGALTSGVHTFPAVLQSSGLYSLSSVVTVPSSNFGTQTYTCNVDHKPSNTKVDKTVERKCCVECPPCPAPPVAGPSVFLFPPKPKDTLMISRTPEVTCVVVDVSHEDPEVQFNWYVDGVEVHNAKTKPREEQFNSTFRVVSVLTVVHQDWLNGKEYKCKVSNKGLPSSIEKTISKTKGQPREPQVYTLPPSREEMTKNQVSLTCLVKGFYPSDIAVEWESNGQPENNYKTTPPMLDSDGSFFLYSKLTVDKSRWQQGNVFSCSVMHEALHNHYTQKSLSLSPGK
light: EIVLTQSPATLSLSPGERATLSCKASKRVTTYVSWYQQKPGQAPRLLIYGASNRYLGIPARFSGSGSGTDFTLTISSLEPEDFAVYYCSQSYNYPYTFGQGTKLEIKRTVAAPSVFIFPPSDEQLKSGTASVVCLLNNFYPREAKVQWKVDNALQSGNSQESVTEQDSKDSTYSLSSTLTLSKADYEKHKVYACEVTHQGLSSPVTKSFNRGEC
notes: humanized anti-CGRP antagonist antibody, vectors ATCC PTA-6867 and PTA-6866
[1]; FIGS. 20A and 20B
  activation of meningeal nociceptors by CSD: prevents the activation of most a-delta and some C-type meningeal nociceptors
[1]; male rats, 30 mg/kg IV 4 hours before CSD, FIG. 21A
  a-delta fibers activated by CSD: 14%
[1]; male rats, 30 mg/kg IV 4 hours before CSD, FIG. 21B
  C-fibers activated by CSD: 23%
[1]; male rats, 30 mg/kg IV 4 hours before CSD, all neurons
  neurons tested that were activated by CSD: 20%
[2]
  KD: No binding
[3]; 2/14 versus 13/13
  difference in HT neurons activated by CSD versus isotype-conAb: 86%
[3]; female rats
  HT neuronal responses to dural indentation with VFH before CSD: 10.5±1.6
  HT neurons with expansion of dural receptive fields after CSD: 0/6
  HT neurons with expansion of facial receptive fields after CSD: 0/6
  expected CSD-induced activation of the HT neurons: prevented
[3]; female rats, 6 HT neurons
  firing of HT neurons before CSD: 3.3±1.7 spikes/sec
[3]; female rats, 6 HT neurons, 2 hours after CSD, p=0.45
  firing of HT neurons after CSD: 5.0±3.4 spikes/sec
[3]; female rats, 6 HT neurons, p=0.51
  HT neuronal response to brushing the cornea after CSD: remained unchanged
[3]; female rats, 2 hours after CSD, p=0.72
  HT neuronal responses to dural indentation with VFH after CSD: 8.1±6.4
[3]; male and female rats, 2 hours after CSD, p=0.35, 0.63, 0.78
  HT neuronal responses to brush, pressure and pinch of the skin after CSD: remained unchanged
[3]; male and female rats, activated/tested
  HT neurons activated by CSD (case-by-case analysis): 2/14
[3]; male rats
  HT neuronal responses to dural indentation with VFH before CSD: 1.8±0.6
  HT neurons with expansion of dural receptive fields after CSD: 2/8
  HT neurons with expansion of facial receptive fields after CSD: 2/8
  expected CSD-induced activation of the HT neurons: prevented
[3]; male rats, 8 HT neurons
  HT neuronal response to brushing the cornea before CSD: 10.8±3.3 spikes/sec
  firing of HT neurons before CSD: 1.2±0.6 spikes/sec
[3]; male rats, 8 HT neurons, 2 hours after CSD, p=0.29
  firing of HT neurons after CSD: 1.9±1.5 spikes/sec
[3]; male rats, 8 HT neurons, p=0.60
  HT neuronal response to brushing the cornea after CSD: 9.4±1.8 spikes/sec
[3]; male rats, 2 hours after CSD, p=0.83
  HT neuronal responses to dural indentation with VFH after CSD: 1.9±1.5

— patent publication US10766952B2, “Methods for reducing migraine frequency in a subject in need thereof” (Beth Israel Deaconess Medical Center, Inc., priority 2017, dated 2020)
